Key:
[1] = target: Ku70/80 heterodimer (human (endogenous in HeLa)) (UniProt P12956)
[2] = target: XRCC4-DNA ligase IV (X4L4) complex (human) (UniProt Q13426)
Sequence of XRCC4-DNA ligase IV (X4L4) complex (human) (Q13426 whole entry, chain 1 of 2): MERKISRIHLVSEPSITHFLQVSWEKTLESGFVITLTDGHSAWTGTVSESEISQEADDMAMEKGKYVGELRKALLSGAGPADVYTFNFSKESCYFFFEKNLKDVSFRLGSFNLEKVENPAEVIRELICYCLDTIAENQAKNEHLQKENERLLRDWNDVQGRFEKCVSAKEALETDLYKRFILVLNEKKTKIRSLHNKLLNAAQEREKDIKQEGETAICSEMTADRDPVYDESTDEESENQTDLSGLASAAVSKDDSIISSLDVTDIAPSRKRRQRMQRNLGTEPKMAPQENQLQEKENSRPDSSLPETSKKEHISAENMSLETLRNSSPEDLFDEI
Sequence of XRCC4-DNA ligase IV (X4L4) complex (human) (P49917 whole entry, chain 2 of 2, further chain): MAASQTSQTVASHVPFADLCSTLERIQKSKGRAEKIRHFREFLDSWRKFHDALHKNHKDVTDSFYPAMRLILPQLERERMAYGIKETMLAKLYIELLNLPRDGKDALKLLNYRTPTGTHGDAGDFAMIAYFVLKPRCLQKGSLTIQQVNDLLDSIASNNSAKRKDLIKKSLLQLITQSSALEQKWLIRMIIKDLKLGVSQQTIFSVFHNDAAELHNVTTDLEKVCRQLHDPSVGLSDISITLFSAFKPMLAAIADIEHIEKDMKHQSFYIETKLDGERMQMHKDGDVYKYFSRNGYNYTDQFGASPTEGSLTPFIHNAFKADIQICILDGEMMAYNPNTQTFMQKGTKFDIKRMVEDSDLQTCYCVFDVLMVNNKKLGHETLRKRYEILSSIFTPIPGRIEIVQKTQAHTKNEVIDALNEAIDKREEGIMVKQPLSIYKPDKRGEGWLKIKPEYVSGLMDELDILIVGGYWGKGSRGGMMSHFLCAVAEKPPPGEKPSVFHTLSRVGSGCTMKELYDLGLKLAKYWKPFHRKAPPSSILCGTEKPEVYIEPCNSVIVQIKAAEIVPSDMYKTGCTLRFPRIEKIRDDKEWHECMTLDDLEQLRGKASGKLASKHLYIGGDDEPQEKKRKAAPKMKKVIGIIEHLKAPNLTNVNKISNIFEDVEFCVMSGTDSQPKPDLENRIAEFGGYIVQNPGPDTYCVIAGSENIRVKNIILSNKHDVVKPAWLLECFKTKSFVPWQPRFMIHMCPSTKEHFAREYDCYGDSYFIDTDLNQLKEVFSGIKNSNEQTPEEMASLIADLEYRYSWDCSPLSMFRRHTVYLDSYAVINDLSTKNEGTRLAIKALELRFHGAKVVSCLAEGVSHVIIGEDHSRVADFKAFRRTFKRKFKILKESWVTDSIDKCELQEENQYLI

Sequence of aprataxin and polynucleotide kinase/phosphatase-like factor (APLF), GST tag removed (Q8IW19 whole entry): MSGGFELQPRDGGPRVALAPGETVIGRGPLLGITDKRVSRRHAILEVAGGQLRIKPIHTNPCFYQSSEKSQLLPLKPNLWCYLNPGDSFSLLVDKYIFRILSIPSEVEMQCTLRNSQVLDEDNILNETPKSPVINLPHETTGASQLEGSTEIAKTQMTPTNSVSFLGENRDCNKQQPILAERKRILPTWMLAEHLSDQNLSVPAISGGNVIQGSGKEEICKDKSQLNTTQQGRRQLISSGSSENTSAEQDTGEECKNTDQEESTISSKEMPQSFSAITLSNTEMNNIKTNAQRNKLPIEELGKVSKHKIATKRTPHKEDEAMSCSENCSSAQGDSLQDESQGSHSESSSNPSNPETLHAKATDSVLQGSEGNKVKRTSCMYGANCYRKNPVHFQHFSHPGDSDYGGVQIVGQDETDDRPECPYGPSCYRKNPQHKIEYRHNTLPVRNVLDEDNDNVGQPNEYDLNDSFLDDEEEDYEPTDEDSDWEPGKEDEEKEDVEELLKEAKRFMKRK
Sequence of Ku70/80 heterodimer (human (endogenous in HeLa)) (P12956 whole entry, chain 1 of 2): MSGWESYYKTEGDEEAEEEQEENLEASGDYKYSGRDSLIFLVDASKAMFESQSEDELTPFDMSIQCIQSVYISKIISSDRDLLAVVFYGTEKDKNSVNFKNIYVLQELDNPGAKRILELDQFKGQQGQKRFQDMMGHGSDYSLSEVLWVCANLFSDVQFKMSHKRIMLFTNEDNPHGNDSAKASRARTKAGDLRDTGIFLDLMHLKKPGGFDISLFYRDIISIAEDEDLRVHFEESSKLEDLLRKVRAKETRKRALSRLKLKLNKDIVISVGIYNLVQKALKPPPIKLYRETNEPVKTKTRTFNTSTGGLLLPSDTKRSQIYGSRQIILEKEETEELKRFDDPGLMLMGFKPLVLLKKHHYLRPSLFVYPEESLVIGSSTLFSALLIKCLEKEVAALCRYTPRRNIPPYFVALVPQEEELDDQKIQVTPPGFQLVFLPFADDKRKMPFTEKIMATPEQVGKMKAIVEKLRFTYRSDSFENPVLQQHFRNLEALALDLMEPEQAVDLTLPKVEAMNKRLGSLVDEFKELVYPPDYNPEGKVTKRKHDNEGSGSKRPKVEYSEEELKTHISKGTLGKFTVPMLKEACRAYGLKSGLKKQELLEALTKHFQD
Sequence of Ku70/80 heterodimer (human (endogenous in HeLa)) (P13010 whole entry, chain 2 of 2, further chain): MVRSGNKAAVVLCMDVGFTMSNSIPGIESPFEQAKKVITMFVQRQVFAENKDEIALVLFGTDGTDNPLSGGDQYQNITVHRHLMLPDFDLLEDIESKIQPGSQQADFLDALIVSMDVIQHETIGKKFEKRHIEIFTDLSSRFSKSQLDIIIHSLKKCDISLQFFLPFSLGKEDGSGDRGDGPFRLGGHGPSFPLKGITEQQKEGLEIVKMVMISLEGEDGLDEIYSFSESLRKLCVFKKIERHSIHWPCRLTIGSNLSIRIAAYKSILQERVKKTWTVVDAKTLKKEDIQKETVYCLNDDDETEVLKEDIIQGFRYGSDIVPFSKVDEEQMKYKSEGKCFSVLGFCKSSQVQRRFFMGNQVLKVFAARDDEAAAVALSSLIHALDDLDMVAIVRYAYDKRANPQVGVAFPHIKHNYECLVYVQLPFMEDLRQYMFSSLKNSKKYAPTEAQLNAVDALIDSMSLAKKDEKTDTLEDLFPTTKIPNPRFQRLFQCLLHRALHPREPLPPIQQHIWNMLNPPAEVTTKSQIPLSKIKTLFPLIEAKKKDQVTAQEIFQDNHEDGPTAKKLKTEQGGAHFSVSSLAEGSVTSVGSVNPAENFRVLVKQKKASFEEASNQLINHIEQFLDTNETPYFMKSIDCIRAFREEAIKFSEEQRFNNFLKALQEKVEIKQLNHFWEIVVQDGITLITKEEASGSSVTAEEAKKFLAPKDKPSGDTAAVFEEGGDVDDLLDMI

## aprataxin and polynucleotide kinase/phosphatase-like factor (APLF), GST tag removed (from UniProt Q8IW19 1-511) (natural protein)
[1]
  stoichiometry N: 1
[2]
  stoichiometry N: 1

Source: PMC5207133
